These results are taken from paper PMC9368491.

This assay deals with β-catenin (endogenous) (UniProt P35222). Put plainly: anti-Cav-1 IP, β-catenin blot. To be noted: reference: WT Cav-1, DMSO; sites Y14.

For “Caveolin-1 (Cav-1) (from UniProt Q03135) Y14F Cav-1, DMSO”, the “binding against the reference” value is reported as “weaker”.
